Experimental data published in the RNAGym collection of RNA variant scans (doi:10.1073/pnas.2313332121).

B1: TPR t1 (parent)
chain: GACCAAUCUGCCCUCAGAGCUCGAGAACAUCUUCGGAUGCAGAGGAGGCAGGCUUCGGUGGCGCGAUAGCGCCAACGUCCUCAACCUCCAAUGCAUCCCACCACAUGAUGAUGCCUGAAGAGCCUUGGUUUUUUG

Variants of: B1
Assay: polymerase ribozyme fitness, log enrichment relative to wild type (log ratio); higher = more active; in vitro selection for triplet polymerase activity
In short: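 Fitness measures genotype enrichment against wild-type enrichment on a logarithmic scale, with inverse-variance-weighted averaging of replicates. The logarithm is base 2, and genotypes were kept only with ≥10 input reads and ≥1 read per output in Illumina sequencing. The sequenced libraries came from one triplicate in vitro selection round, including frozen incubation at −7 °C, of PCR-built, transcribed mutant libraries of each subunit of a heterodimeric triplet polymerase ribozyme.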

Variant | polymerase ribozyme fitness (log ratio)
C8U A46U | -0.626
C8A C64U U78A C94G A100U C102A U112A G128A U129A G135C | -4.75
C8G G36A G44A | -1.23
C8G C13G C98U | -0.112
C8A G35U | -4.85
C8U G44U C88G U92A | -3.81
C8G G17C C53U | -2.9
C8A C28A C56U C82U U106A C115A | -2.02
C8U C62A C98U | -1.15
C8U A24G G48C C115G | -3.87
C8G G39U C70U U78A | -0.697
C8G C104G U116C A121U G122U U129C | -7.72
C8G C72U C89A A105U | -3.93
C8G G35C | -4.29
C8U C40U | 0.0119
C8A C53U C56A A75G | 0.188
C8A C80U A105C U112G G120C | -3.09
C8U A29U U59C A121G | -1.03
C8G G71A C89A C97U G120C | -1.24
C8U G52U C56A G77U A121U | 1.55
C8A C70G | -1.76

Variant | polymerase ribozyme fitness (log ratio)
C8U G48C | 0.186
C8G G39U C80A | -2.47
C8G U14G C53U G71A | -0.0624
C8A A66U C124G | 0.659
C8U G58U A111G U126C | -1.57
C8A A43C G44A C53A C86U G93U | -2.53
C8G A41C G63U C64U G113A A118G | -7.5
C8U A26U U59G | -2.5
C8G C12G U59G U129C | 0.2
C8U C13A A18C U54G C70U | -3.71
C8G A16U A18U G58C C79A U109A | -6.59
C8G G17U | -0.274
C8U C97U U116C | -0.891
C8U C73A C88G | -1.06
C8U C80G | -4.55
C8A U14G U55A C62U U78A A100C | -1.37
C8U C114G U126C | -1.85
C8A G35A C89U G117C | -6.27
C8A G48U U59G A105C U112C G120A | -1.08
C8G A50C | 0.0345
C8G U33C C64A U106A G120C | -6.76

Variant | polymerase ribozyme fitness (log ratio)
C8G G17U G48A G57U U112G C114U | -5.14
C8A A29U G69U | -0.0842
C8G C12U U21G G39C | -1.78
C8U A27G C82A | -1.59
C8G G44C C49A | 0.0557
C8A G58C | 0.847
C8G A118U | 1.5
C8G C13A G52C U92A | -3.15
C8G U55A | 0.0363
C8G C20G C40G U96C U112A | -6.13
C8A G48A C101G C115U | -4.25
C8G U96C C104U | 0.578
C8G G52A G63C C94G G113C U131G | -4.64
C8U C124U | 1.6
C8U C124A | 2.27
C8A C72G C101G | -2.08
C8A G65C C115A C123G | -4.88
C8G C49A U96G | 0.183
C8G C11U A16C G44C U59C G60A C115G | -4.64
C8G A111U | -1.64
C8U | 0.471

Variant | polymerase ribozyme fitness (log ratio)
C8G | 0.574
C8U C15U U32C G71U C99U | -4.38
C8A C49U | 0.0763
C8U C99U | -2.32
C8U C73A | 1.41
C8U C73A C123A | 2.02
C8G G48U G113A U126C | -0.687
C8A G42A C62A C114U | -2.59
C8U A50U | -0.00813
C8G C98A C102A C115A | -3.34
C8G C15A G39A G52C U59A C89A G117A | -2.57
C8G C22G G47A C70U G77U | -4.84
C8G A27G C64U C72U G93U C104A A111U U125C | -3.56
C8G A50G U106G G120A | 1.23
C8A G19C U59A C82A | -3.12
C8G A18U G44U G47A C102A G120A A121C C124U | -6.31
C8U C22G U96A | -2.59
C8U C28G | -1.19
C8A A18U G45C U109A | -5.8
C8A U112C U125A | 1.71
